Reference: publication PMC6538622 (Scientific Reports, 2019)

Biological target: the molecule itself
Experiment: SEC-SAXS; 5-10 mg/ml protein in 10 mM DTT, 10 mM MgCl2, 0.5 M NaCl, 20 mM Tris pH 8; KW403-4F size-exclusion column, B21 beamline (Diamond Light Source); molecular mass from I(0)

B1: Escherichia coli RNase E N-terminal catalytic domain (domain or fragment)
chain: not shown
notes: also called EcRNase E NTD; E. coli RNase E NTD
stoichiometry N: 4
